Measured values from IntAct's records for PubMed 35512704.

B1: Mothers against decapentaplegic homolog 4 (Homo sapiens), Q13485 (parent)
chain: MDNMSITNTPTSNDACLSIVHSLMCHRQGGESETFAKRAIESLVKKLKEKKDELDSLITAITTNGAHPSKCVTIQRTLDGRLQVAGRKGFPHVIYARLWRWPDLHKNELKHVKYCQYAFDLKCDSVCVNPYHYERVVSPGIDLSGLTLQSNAPSSMMVKDEYVHDFEGQPSLSTEGHSIQTIQHPPSNRASTETYSTPALLAPSESNATSTANFPNIPVASTSQPASILGGSHSEGLLQIASGPQPGQQQNGFTGQPATYHHNSTTTWTGSRTAPYTPNLPHHQNGHLQHHPPMPPHPGHYWPVHNELAFQPPISNHPAPEYWCSIAYFEMDVQVGETFKVPSSCPIVTVDGYVDPSGGDRFCLGQLSNVHRTEAIERARLHIGKGVQLECKGEGDVWVRCLSDHAVFVQSYYLDREAGRAPGDAVHKIYPSAYIKVFDLRQCHRQMQQQAATAQAAAAAQAAAVAGNIPGPGSVGGIAPAISLSAAAGIGVDDLRRLCILRMSFVKGWGPDYPRQSIKETPCWIEIHLHRALQLLDEVLHTMPIADPQPLD

Variants of: B1
Details: with tfe2_human TCF3, P15923

Variant	effect of a mutation on the interaction
G386D	with no effect

Variants of: B1
Details: with tead1_human TEAD1, P28347

Variant	effect of a mutation on the interaction
G386D	with no effect

Variants of: B1
Details: with tead2_human TEAD2, Q15562

Variant	effect of a mutation on the interaction
G386D	with no effect

Variants of: B1
Details: with tead3_human TEAD3, Q99594
tead3_human TEAD3, Q99594, sequence (Q99594 whole entry): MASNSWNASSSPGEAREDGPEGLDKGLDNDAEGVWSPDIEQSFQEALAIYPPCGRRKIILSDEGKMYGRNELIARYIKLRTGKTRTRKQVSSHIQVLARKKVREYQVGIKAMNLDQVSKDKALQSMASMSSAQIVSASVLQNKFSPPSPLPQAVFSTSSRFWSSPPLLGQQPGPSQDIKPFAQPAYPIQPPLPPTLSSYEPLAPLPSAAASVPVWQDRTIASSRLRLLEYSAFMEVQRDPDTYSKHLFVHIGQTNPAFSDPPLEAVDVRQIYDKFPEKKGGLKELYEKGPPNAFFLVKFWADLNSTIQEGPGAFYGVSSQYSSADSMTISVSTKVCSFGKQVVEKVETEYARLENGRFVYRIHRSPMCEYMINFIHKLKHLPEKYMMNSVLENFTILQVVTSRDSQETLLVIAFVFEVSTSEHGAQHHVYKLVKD

Variant	effect of a mutation on the interaction
G386D	with no effect

Variants of: B1
Details: with tet2_human TET2, Q6N021

Variant	effect of a mutation on the interaction
G386D	with no effect

Variants of: B1
Details: with tgfr2_human TGFBR2, P37173

Variant	effect of a mutation on the interaction
G386D	with no effect

Variants of: B1
Details: with tnr14_human TNFRSF14, Q92956
tnr14_human TNFRSF14, Q92956, sequence (Q92956 whole entry): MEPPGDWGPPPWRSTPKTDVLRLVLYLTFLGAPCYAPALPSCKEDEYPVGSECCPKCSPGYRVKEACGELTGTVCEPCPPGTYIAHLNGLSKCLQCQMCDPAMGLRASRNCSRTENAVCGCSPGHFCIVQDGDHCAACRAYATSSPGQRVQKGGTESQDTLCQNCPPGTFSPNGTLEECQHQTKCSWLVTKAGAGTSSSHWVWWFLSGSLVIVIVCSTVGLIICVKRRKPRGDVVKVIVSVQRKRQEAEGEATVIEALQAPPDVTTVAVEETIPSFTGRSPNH

Variant	effect of a mutation on the interaction
G386D	with no effect

Variants of: B1
Details: with tpx2_human TPX2, Q9ULW0

Variant	effect of a mutation on the interaction
G386D	with no effect

Variants of: B1
Details: with trrap_human TRRAP

Variant	effect of a mutation on the interaction
G386D	with no effect

Variants of: B1
Details: with tsc2_human TSC2, P49815
tsc2_human TSC2, P49815, sequence (P49815 whole entry): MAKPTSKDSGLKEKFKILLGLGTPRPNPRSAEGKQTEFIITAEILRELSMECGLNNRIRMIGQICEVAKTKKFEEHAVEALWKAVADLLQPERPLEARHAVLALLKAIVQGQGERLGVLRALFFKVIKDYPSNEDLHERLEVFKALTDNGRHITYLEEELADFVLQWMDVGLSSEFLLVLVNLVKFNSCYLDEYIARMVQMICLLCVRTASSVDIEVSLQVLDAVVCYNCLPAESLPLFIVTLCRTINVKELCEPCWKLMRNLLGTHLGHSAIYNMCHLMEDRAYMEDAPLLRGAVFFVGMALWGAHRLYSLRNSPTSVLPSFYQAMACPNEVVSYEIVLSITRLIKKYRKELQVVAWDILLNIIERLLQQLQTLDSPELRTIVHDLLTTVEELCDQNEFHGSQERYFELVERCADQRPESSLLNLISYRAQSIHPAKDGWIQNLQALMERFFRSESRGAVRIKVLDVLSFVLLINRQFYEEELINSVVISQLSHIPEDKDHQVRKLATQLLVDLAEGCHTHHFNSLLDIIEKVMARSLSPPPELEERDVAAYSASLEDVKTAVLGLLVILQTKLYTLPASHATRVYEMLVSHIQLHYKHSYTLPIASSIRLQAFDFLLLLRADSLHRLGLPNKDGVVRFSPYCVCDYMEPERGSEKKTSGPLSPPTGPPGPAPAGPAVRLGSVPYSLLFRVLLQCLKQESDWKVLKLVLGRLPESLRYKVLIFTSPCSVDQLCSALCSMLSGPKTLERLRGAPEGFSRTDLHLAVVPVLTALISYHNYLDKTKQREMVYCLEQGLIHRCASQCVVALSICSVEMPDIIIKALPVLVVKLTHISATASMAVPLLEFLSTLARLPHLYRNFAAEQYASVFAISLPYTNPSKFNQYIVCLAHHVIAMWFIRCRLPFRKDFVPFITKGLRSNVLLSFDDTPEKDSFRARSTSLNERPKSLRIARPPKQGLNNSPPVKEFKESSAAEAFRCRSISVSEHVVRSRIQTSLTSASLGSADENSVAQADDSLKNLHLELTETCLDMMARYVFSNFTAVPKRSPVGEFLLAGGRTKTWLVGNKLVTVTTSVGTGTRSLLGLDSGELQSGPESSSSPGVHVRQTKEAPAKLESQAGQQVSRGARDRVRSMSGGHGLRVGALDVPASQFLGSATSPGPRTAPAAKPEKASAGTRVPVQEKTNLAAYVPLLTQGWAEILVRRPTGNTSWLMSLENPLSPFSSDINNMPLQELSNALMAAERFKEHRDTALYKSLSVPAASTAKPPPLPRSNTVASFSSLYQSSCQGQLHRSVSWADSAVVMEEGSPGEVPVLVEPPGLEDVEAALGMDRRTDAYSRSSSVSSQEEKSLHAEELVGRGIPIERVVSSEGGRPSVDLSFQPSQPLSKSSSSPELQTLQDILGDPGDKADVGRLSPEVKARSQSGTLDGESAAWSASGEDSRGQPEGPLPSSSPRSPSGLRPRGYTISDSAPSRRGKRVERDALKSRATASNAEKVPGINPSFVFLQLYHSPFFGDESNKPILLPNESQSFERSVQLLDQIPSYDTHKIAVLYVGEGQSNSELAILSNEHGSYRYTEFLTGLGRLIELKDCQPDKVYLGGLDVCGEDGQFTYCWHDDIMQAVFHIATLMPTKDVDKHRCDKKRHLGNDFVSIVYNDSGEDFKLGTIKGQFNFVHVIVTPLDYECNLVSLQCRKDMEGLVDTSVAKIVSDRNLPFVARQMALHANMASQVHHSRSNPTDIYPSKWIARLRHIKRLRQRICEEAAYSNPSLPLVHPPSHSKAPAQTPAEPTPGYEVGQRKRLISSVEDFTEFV

Variant	effect of a mutation on the interaction
G386D	with no effect

Variants of: B1
Details: with tshr_human TSHR

Variant	effect of a mutation on the interaction
G386D	with no effect

Variants of: B1
Details: with vhl_human VHL

Variant	effect of a mutation on the interaction
G386D	with no effect

Variants of: B1
Details: with wt1_human WT1, P19544

Variant	effect of a mutation on the interaction
G386D	with no effect

Variants of: B1
Details: with wwtr1_human WWTR1, Q9GZV5

Variant	effect of a mutation on the interaction
G386D	with no effect

Variants of: B1
Details: with xirp2_human XIRP2, A4UGR9

Variant	effect of a mutation on the interaction
G386D	with no effect

Variants of: B1
Details: with xpo1_human XPO1, O14980

Variant	effect of a mutation on the interaction
G386D	with no effect

Variants of: B1
Details: with 1433e_human YWHAE

Variant	effect of a mutation on the interaction
G386D	with no effect

Variants of: B1
Details: with 1433z_human YWHAZ

Variant	effect of a mutation on the interaction
G386D	with no effect

Variants of: B1
Details: with arc1a_human ARPC1A

Variant	effect of a mutation on the interaction
G386D	increasing interaction strength

Variants of: B1
Details: with axin2_human AXIN2, Q9Y2T1

Variant	effect of a mutation on the interaction
G386D	increasing interaction strength

Variants of: B1
Details: with btg1_human BTG1, P62324
btg1_human BTG1, P62324, sequence (P62324 whole entry): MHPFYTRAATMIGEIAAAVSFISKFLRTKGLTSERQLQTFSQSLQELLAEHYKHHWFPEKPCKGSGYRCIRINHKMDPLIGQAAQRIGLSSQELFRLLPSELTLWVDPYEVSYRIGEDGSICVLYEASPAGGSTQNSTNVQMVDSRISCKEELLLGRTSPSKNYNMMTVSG

Variant	effect of a mutation on the interaction
G386D	increasing interaction strength

Variants of: B1
Details: with erbb3_human ERBB3, P21860

Variant	effect of a mutation on the interaction
G386D	increasing interaction strength

Variants of: B1
Details: with gna13_human GNA13, Q14344

Variant	effect of a mutation on the interaction
G386D	increasing interaction strength

Variants of: B1
Details: with gsk3b_human GSK3B

Variant	effect of a mutation on the interaction
G386D	increasing interaction strength

Variants of: B1
Details: with hdac1_human HDAC1, Q13547

Variant	effect of a mutation on the interaction
G386D	increasing interaction strength

Variants of: B1
Details: with hnf1a_human HNF1A

Variant	effect of a mutation on the interaction
G386D	increasing interaction strength

Variants of: B1
Details: with notc2_human NOTCH2, Q04721

Variant	effect of a mutation on the interaction
G386D	causing an interaction

Variants of: B1
Details: with ntrk2_human NTRK2, Q16620

Variant	effect of a mutation on the interaction
G386D	causing an interaction

Variants of: B1
Details: with dpod1_human POLD1, P28340

Variant	effect of a mutation on the interaction
G386D	increasing interaction strength

Variants of: B1
Details: with socs1_human SOCS1, O15524

Variant	effect of a mutation on the interaction
G386D	increasing interaction strength

Variants of: B1
Details: with tshr_human TSHR
Remark: another data set of the same source

Variant	effect of a mutation on the interaction
G386D	increasing interaction strength

Variants of: B1
Details: with smad2_human SMAD2, Q15796
smad2_human SMAD2, Q15796, sequence (Q15796 whole entry): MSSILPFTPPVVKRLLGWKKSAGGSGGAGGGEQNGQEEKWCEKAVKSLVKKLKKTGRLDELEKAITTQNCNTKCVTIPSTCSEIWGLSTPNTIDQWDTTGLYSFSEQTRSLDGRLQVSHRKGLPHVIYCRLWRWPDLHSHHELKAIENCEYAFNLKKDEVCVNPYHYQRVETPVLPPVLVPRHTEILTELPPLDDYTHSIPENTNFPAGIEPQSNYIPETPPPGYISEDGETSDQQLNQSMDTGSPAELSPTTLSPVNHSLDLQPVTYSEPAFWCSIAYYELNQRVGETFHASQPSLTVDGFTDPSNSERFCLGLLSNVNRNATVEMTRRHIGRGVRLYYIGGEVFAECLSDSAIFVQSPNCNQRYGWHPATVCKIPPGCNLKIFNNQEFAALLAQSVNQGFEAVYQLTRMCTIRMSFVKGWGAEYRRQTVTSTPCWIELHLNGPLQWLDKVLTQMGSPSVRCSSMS

Variant	effect of a mutation on the interaction
G386D	disrupting interaction strength

Variants of: B1
Details: with smad3_human SMAD3, P84022
smad3_human SMAD3, P84022, sequence (P84022 whole entry, looked up): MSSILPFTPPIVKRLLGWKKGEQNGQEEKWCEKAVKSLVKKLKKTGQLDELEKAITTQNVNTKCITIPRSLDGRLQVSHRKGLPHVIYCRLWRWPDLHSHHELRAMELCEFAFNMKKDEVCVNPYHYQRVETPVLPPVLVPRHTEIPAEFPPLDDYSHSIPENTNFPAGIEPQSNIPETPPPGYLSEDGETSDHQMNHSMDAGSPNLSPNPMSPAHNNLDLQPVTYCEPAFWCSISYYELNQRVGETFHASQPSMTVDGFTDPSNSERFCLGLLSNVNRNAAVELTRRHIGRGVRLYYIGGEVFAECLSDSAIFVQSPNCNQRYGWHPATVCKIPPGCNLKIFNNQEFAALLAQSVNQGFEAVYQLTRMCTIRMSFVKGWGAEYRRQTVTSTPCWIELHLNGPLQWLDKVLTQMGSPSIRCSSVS

Variant	effect of a mutation on the interaction
G386D	decreasing interaction strength

Variants of: B1
Details: with cdk6_human CDK6, Q00534

Variant	effect of a mutation on the interaction
G386D	decreasing interaction strength

Variants of: B1
Details: with ccnd1_human CCND1, P24385
ccnd1_human CCND1, P24385, sequence (P24385 whole entry): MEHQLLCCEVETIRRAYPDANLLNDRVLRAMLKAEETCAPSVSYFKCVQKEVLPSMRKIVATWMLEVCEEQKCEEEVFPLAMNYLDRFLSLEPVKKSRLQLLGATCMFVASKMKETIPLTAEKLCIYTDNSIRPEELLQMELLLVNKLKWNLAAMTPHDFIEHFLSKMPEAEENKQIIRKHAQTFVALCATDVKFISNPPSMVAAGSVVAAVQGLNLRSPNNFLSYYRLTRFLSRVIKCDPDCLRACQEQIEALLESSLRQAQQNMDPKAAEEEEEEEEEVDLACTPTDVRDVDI

Variant	effect of a mutation on the interaction
G386D	decreasing interaction strength

Variants of: B1
Details: with akt1_human AKT1, P31749

Variant	effect of a mutation on the interaction
G386D	decreasing interaction strength

Variants of: B1
Details: with pk3cb_human PIK3CB

Variant	effect of a mutation on the interaction
G386D	decreasing interaction strength

Variants of: B1
Details: with jak1_human JAK1, P23458
jak1_human JAK1, P23458, sequence (P23458 whole entry): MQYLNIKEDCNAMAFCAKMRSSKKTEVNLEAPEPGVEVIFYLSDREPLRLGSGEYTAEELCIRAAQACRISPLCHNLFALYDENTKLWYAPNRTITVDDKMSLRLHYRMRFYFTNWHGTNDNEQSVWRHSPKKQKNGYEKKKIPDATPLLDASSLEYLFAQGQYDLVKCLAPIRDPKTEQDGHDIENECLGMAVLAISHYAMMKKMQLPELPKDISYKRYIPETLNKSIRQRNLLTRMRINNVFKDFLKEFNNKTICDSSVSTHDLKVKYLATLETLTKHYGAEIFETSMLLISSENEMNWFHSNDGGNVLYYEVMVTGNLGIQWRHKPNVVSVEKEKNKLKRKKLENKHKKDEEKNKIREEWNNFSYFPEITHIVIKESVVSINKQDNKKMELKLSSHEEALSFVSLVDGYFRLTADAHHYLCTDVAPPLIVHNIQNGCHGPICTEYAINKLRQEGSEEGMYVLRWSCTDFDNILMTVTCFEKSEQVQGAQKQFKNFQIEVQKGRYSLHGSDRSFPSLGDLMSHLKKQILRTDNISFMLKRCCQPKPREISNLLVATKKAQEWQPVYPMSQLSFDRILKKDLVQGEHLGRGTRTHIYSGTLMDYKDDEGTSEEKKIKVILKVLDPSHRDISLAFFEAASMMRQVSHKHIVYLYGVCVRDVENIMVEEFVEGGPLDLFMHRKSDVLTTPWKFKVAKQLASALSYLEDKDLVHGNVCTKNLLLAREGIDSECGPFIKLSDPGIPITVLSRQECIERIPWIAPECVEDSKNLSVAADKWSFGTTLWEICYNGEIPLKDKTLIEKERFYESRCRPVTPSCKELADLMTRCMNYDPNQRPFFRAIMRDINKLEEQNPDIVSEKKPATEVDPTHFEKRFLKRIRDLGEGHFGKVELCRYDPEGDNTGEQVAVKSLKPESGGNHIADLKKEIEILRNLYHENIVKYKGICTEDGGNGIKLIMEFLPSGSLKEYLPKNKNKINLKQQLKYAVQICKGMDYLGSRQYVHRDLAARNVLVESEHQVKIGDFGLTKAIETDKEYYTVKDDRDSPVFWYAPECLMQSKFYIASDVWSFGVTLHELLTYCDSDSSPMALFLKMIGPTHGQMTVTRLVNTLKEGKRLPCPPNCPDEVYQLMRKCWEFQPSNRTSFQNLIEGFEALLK

Variant	effect of a mutation on the interaction
G386D	decreasing interaction strength

Variants of: B1
Details: with jak3_human JAK3, P52333

Variant	effect of a mutation on the interaction
G386D	decreasing interaction strength

Variants of: B1
Details: with baba2_human BABAM2, Q9NXR7

Variant	effect of a mutation on the interaction
G386D	increasing interaction strength
